Ends that are not written are not given here.
Key:
[1] = biological target: T1, recombinant mouse P-selectin Fc chimera (mouse, UniProt Q01102 42-709); assay: Biacore; biotinylated glycopeptide captured on a streptavidin chip, mP-sel-Ig flowed over (trace shown at 20 µg/ml) [lower middle panel 'mP-sel-Ig (20 µg/ml)' (E in the legend]
T1 construct: also called murine P-selectin; P-sel-Ig; not shown: Ig (Fc) part of the chimera
T1 sequence (looked up): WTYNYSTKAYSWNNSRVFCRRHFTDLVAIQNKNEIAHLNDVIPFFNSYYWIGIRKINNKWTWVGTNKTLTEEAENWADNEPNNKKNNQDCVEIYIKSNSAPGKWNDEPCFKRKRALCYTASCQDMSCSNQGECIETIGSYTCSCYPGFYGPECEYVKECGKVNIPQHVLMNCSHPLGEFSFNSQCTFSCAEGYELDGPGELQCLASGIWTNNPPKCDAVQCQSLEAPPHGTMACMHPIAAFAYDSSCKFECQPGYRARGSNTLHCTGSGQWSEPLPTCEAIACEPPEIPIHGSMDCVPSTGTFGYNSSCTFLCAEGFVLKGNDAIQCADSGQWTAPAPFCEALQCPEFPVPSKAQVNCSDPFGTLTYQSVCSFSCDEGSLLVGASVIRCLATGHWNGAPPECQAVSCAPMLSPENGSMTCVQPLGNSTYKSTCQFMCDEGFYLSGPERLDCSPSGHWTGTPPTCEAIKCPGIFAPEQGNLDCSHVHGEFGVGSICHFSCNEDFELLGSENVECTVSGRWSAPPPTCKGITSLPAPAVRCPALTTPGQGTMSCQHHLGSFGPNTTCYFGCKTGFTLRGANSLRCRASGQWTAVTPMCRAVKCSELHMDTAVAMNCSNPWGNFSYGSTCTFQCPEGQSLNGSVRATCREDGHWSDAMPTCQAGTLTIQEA
From the text: (§1) GSnP-6 bound to E- and L-selectin with even lower apparent affinity.

[2] = biological target: T2, recombinant human P-selectin Fc chimera (human, UniProt P16109 42-771); assay: Biacore; biotinylated glycopeptide captured on a streptavidin chip, hP-sel-Ig flowed over (trace shown at 20 µg/ml) [lower left panel 'hP-sel-Ig (20 µg/ml)' (D in the legend]
T2 construct: also called P-sel-Ig; recombinant Ig chimera of P-selectin
From the text: as §1

T2 sequence (P16109 42-771, change not shown): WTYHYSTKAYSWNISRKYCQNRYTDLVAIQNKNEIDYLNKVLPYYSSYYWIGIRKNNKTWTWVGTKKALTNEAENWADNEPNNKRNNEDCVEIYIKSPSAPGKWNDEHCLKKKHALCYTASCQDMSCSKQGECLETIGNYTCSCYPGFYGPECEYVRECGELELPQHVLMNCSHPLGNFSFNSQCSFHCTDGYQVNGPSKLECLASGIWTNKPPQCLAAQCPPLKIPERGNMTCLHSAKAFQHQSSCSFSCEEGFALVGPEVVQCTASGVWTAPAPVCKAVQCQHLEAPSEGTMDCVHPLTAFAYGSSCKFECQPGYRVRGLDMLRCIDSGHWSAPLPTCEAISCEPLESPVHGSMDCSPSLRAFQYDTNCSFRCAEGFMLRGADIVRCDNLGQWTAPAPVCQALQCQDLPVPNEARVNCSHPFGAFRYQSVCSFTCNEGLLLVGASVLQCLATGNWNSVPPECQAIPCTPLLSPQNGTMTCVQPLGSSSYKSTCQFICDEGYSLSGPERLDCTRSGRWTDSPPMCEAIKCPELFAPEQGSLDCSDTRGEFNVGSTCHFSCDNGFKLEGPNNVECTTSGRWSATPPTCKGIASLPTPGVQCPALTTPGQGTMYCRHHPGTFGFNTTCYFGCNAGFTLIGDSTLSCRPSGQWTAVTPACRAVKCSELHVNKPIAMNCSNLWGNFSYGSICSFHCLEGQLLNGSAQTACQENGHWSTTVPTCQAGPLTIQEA

Kd [1]: ~128 nM
Kd [2]: ~9 nM
B1: GSP-6 (peptide, UniProt Q14242 45-61, looked up)
peptide: EYEYLDYDFLPET(Core‑2 O‑glycan hexasaccharide with sLe^x)EPPE
modifications: also: tyrosine O-sulfate, positions not given here
notes: Synthetic glycosulfopeptide
